Test results reported in the nanobody polyreactivity screen of Harvey et al. (2022).

Assay: yeast display, Sf9 membrane polyspecificity reagent, FACS + sequencing; frameworks hold sequencing errors
How it was run: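 Nanobodies from a synthetic yeast display library (Saccharomyces cerevisiae BJ5465), induced 36–48 hours with galactose, were stained 1 hour at 4 °C with 10% biotinylated, detergent-solubilized Sf9 membrane reagent, enriched on streptavidin microbeads, then FACS-sorted. Anti-HA (expression) and streptavidin (reagent binding) fluorescence set low and high (top ~1%) gates. Polyreactivity labels come from the gate of origin. Genes were colony-PCR amplified, MiSeq 2 × 250 sequenced and filtered by CDR length.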

Row | Sequence | polyreactivity (PSR sort gate)
1 | QVQLVESGGGLVQAGGSLRLSCAASGTFYYYAMGWYRQAPGKERELVAAIDYSGGSTYYADSVKGRFTISRDNAKNTVYLQMNSLKPEDTAVYYCAYVSVYDFEFWGQGTQVTVSS | high polyreactivity
2 | QVQLVESGGGLVQAGGSLRLSCAASGRTFGVYAMGWYRQATGKERELVAGIRWRGGSTYYADSVKGRFTISRDNAKNTVYLQMNSLKPEDTAVYYCAAKVYYLYDSIWAWVIIRYDYWGQGTQVTVSS | low polyreactivity
3 | QVQLVESGGGLVQAGGSLRLSSAASGLTFRYYALGWYRQAPGKERELVAAITRRGSTYYADSVKGRFTISRDNAKNTVYLQMNSLKPEDTAVYYCATVTGFHSSPLRDLDYWGQGTQVTVSS | high polyreactivity
4 | QVQLVESGGGLVHAGGSLRLSCAASGGILVFYAMGWYRQAPGKERELVAAINVSGGSTYYADSVKGRYTISRDNAKNTVYLQMNSLKPEDTAVYYCAALGPYLDYGVQYGYWGQGTQVTVSS | low polyreactivity
5 | QVQLVESGGGLVQAGGSLRLSCAASGFTFYYYAMGWYRQAPGKERELVAAITSGGSTYYADSVKGRFTISRDNAKNTVYLQMNSLKPEDTAVYYCNTVHYNLDYEYDYWGQGTQGTVSS | low polyreactivity
6 | QVQLVESGGGLVQAGGSLRLSCAASGIIFRNYAMGWYRQAPGEERELVATIRYRGGRTYADSVKGRFTISRDNAKNTVYLQMNSLKPEDTAVYYCNTYARYAYLTGRMDYWGQGTQVTVSS | high polyreactivity
7 | QVQHVESRGGLVQAGGSLRLSCAASGFISRAYAMGWYRQAPGKERELVAAISVRVGSTYYADSVKGRFTISRDNAKNTVYLQMYSLKPEDTAVYYCAALRPWPRYDYWGQGTQVTVSS | high polyreactivity
8 | QVQLVESGGGLVQAGGSLRLSCAASGSTFSWYAMGWYRQAPGKERELVASISWRGGSTYYADSVKGRFTISRDNAKNTVSLQMNSLKPEDTAVYYCAADYDWKLFHEPPAVYDYDYWGQGTQVTVSS | low polyreactivity
9 | QVQLVESGGGLVQAGGSLRLTCASSGRIYVVNAMGWYRQAPGKEMELVADIYRSGGSTYYADSVKGRFTISRDYAKNTVYLQMNSLKPEDTAVYYCAAEDWPSSPSAPGFDYDYWGQATQVTVSS | low polyreactivity
10 | QVQLVESGGGLVQAGGSLRLSCAASGRTFTTYTMGWYRQAPGKERELVASINYRGGRTYYADSVKGRFTISRDNAKNTVYLQMNSLKPEDTAVYYCAYYPYGYDYWGQGTQVTVSS | high polyreactivity
11 | QVQLVESGGGLVQAGGSLRLSCAASGFIFPQYAMGWYRQAPGKERELVAAISTGGGSTYYADSVKGRFTISRDNAKNTVYLQMNSLKPEDTAVYYCAKYVYRFARYNLDYWGQGTQVTVSS | high polyreactivity
12 | QVQLVESGGGLVQAGRSLRLSCAASGSILLYYTMGWYRQAPGKERELVASITSGGRTYYADSVKGRFTISRDNAKNTVYLQMNSLKPEDTAVYYCAADVWKLYDYWGQGTQVTVSS | low polyreactivity
13 | QVQLVESGGGLVQAGGSLRLSCAASGRTFSYYAMGWYRQAAGKERELVAAISRAGRTNYADSVKGRFTISRDNAKNTVYLQMNSLKPEDTAVYYCAATGWLRIDRPYTYTYCYWGQGTQVTVSS | high polyreactivity
14 | QVQLVESGGGLVQAGGSLRLSCAASGRIFGYNTMGWYRQAPGKERELVAAINSGGRTYYADSVKGRFPISRDNAKNTVYLQMNSLKPEDTAVYYCATTTYKRFYRAPTSKYDYWGQGTQVTVSS | high polyreactivity
15 | QVQLVESGGGLVQAGGSLRLSCAASGITFVRYAMGWYRQAPGKERELVAVISRGGITNYADSVKGRFTISRDNAKNTVYLQMNSLKPEDTAVYYCAVRGRSYVRTYDYWGQGTQVTVSS | high polyreactivity
16 | QVQLVESGGGLVQAGGSLRLSCAASGLTCYYYARGLYRQAPGKERELVADISSGGSTKYADSVKGRFTISRDNAKNTVYLQMNSLKPEDTAVYYCATGYFCGFRYRPYYYWGQGTQVTVSS | high polyreactivity
17 | QVQLVESGGGLVQAGGSLRLSCAASGSIFGVYAMGLYRQAPGKERELVASIDTSTGSTYYADSVKGRFTISRDNAKNTVYLQMNSLKPEDTAVYYCNADVGYYFTFEYWGQGTQVTVSS | high polyreactivity
18 | QVQLVESGGGLVQAGGSLRLSCAASGIIFRYYAMGWYRQAPGKERELVAAISGTGSTKYADSVKGRFTISRDNAKNTVYLQMNSLKPEDTAVYYCNPRKRYARYGGSGYDYWGQGTQVTVSS | high polyreactivity
19 | QVQLVESGGGLVQAGGSLRLSCAASGFIFDVYAMGWYRQAPGKERELVAAISSSGGRTYYADSVKGRFTISRDNAKNTVYLQMNSLKPEDSAVYYCAAKTHSRTKVYTADYWGQGTQVTVSS | high polyreactivity
20 | QVQLVESGGGLVQAGGSLRLSCAASGLIFVYYTMGWYRQAPGKERELVARISQSGGTTYYADSVKGRFTISRDNAKNTVYLQMNSLKPEDTAVYYCNARRVGVHYRYDYWGQGTQVTVSS | high polyreactivity
21 | QVQLVESGGGLVQAGGSLRLSCAASGNTFSSNAMGWYRQAPGKERELVAGITKSGGRTYYADSVKGRFTISRDNAKNTVYLQMNSLKPEDTAVYYCNRRAGPYSIPYYYWGQGTQVTVSS | high polyreactivity
22 | QVQLVESGGGLVQAGGSLRLSCAASGGTFKFYAMGWYRQAPGKERELVAAISWSGTSTYYADSVKGRFTISRDNAKNTVYLQMNSLKPEDTAVYYCAADKRLRGHGYDYWGQGTQVTVSS | high polyreactivity

Row | Sequence | polyreactivity (PSR sort gate)
23 | QVQLVESGGGLVQAGGSLRLSCAASGSTFPFYVMGWYRQAPGKERELVASITATGSSTYYADSVKGRFTISRDNAKNTVYLQMNRLKPEDTAVYYCAAPYFGWYLGYYWYREYDYWGQGTQVTVSS | low polyreactivity
24 | QVQLVESGGGLVQAGGSLRLSCAASGRTFQYYAVGWYRQAPGKERELVAAITSGGSTYYADSVKGRFTISRDNAKNTVYLQMNSLKPEDTAVYYCAAKRNVQLGYTVQSLYDYWGLGTQVTVSS | low polyreactivity
25 | QVQLVESGGGLVQAGGSLRLSCAASVRIFTRYAMGWYRPAPGKERELVAGISYRGGGTYYADSVKGRFTISRDNAKNTVYLQMNSLKPEDTAVYYCATRRYPYSLLYKYWGQGTQVTVSS | high polyreactivity
26 | QVQLVESGVGLVQAGRRLRLSCAASGFIFAWNGMGWYRKAPGKERELVAAISWSGGSTYYAVSVKGRFTISRDNEKNTVYLLMNTLKPEETAVYYCYRSWGSRPGSRLEYWGQGTQVTVSS | high polyreactivity
27 | QVQLVESGGGLVQAGGSLRLSCAASGRTIRWYAMGWYRPARGKERELVAVISRGGGSTTYADSVKGRFTISRDNAKNTVYLQMNSLKPEDTAVYYCAAYWGRTGYYGYDYYYWGQGTQVTVSS | high polyreactivity
28 | QVQLVESGGGLVQAGGSLRLSCAASGSARYAMGWYRQAPGKERELVAAISRRGGSTFYADSVKGRFTISRDNAMNTVYLQMNSLKPEDTAVYYCAADGRISYDYWGQGTQVTVSS | low polyreactivity
29 | QVQLVESGGGLVQAGGSLRLSCAASGSIFRNNAMGWYRQAPGKERELVAVINSRGGTTYYADSVKGRFTISRDNAMNPVYLQMNSLIPEDTAVYYCAARIRTSDRRYYWGQGTQVTVSS | high polyreactivity
30 | QVQLIESGGGLVQAGGSLRLSCAASGSTCDRNSMGWYRPAPGKERELVAAIDSDVNTYYADSVKGRFTISRDKAKNTVYLQMNSLTPEDTAVYYCAADYYSWPYDYWGQGTQVTVSS | low polyreactivity
31 | QVQLVESGGGLVQAGGSLRLSCAAPGSIFGTNAMGWYRQAPGKERELVAAINWSGGTTYYADSVKGRFTISRDNAKNTVYLQMNSLKPEDTAVYYCATVFFVLPPTRFDSWGQGTQVTVSS | low polyreactivity
32 | QVQLVESGGGLVQAGGSLRLSCAASGRIFGIYAMGWYRQAPGKERELVATITDSDDSTYYADSVKGRFTISRDNAKNTVYLQMNSLKPEDTAVYYCATAFSYGGGAYDYWGQGTQVTVSS | low polyreactivity
33 | QVQLVESGGGLVQAGGSLRLSCAASGSIFPDYAMGGYRQAPGKERELVAAITWSGGNTYYADSVKGRFTISRDNAKNTVYLQMNSLKPEDTAVYYCAADISLHWYYYRRYNYWGQGTQVTVSS | low polyreactivity
34 | QVQLVESGGGLVQAGGSLRISCAASGFTLRVNAMGWYRQAPGKERELVAAISDSGGDTYYSNSVKGRFTISRDNAKNTVYLQMNSLKPEDTAVYYCAADDGSENDYWGQGTQVTVSS | low polyreactivity
35 | QVQLVESGGGLVQAGGSLRLSCAASGSIFQGNAMGWYRQAPGKERELVAAITYSGGSTYYADSVKGRFTISRDNAKNTVYLQMHSLKREDTAVYYCAAFFPSDLVDGYNYWGQGTQVTVSS | low polyreactivity
36 | KVQLVESGGGLVQAGGSLRLSCAASGITLSYYAMGWYSQAPGKEMELVAAINRGGRTYYADSVTGRFTISRDNAKNTVYLQMNSLKPEDTAVYYCATAYASSQKYYYWGQGTQVTVSS | high polyreactivity
37 | QVQLVESGGGLVQAGGSLRLSCAASGSIFVYNTMGWYREAPGKERELVASITYSGGSTYYADSVKGRFTISRDNAKNTVYLQMNSLKPEDTAVYYCNTDDVALQWDWYPYPYDYWGQGTQVTVSS | low polyreactivity
38 | QVQLVESGGGLVQAGGSLRLSCAASGRIFGYYAMGWYRQAPGKERELVAGIDWSGGNTYYADSVKGRFTISRDNAKNTVYLQMNSLKPEDTAVYYCNTEGGRDTAWYDYWGQGTQVTVSS | low polyreactivity
39 | QVQLVESGGGLVQAGGSLRLSCAASGLIFPKYAMGWYRQAPGNEREFVAAISGRGGTTYYADSVKGRFTISRDNAKNTVYLQMNSLKPEDTAVYYCAAGGPWANIYGNGYWGQGTQVTVSS | high polyreactivity
40 | QVQLVESGGGLVQAGGSLRLSCAASGRTFYRYAMGWYRQAPGKERELVARITSGSSTNYADSVKGRFTISRDNAKNTVYLQMNSLKPEDTAVYYCAKDPRPYLDYDYWGQGTQVTVSS | low polyreactivity
41 | QVQLVESGGGLVQAGGSLRLSCAASGSTFTLYAMGWYRQAPGKERELVAAISWSGDTTYYADSVKGRFTISRDNAKNTVYLQMNSLKPEDTAVYYCAADWYTSYYYEHESWGQGTQVTVSS | high polyreactivity
42 | QVQLVESGGGLVQAGGSLRLSCAAYGLIFPVYAMGWYRQAPGKEREFVASIWRGGTTYYADSVKGRFTISRDNAKNTVYLQMNRLKPEDTAVYYCAARYYPRGLVFPFTKYDYWGQGTQVTVSS | high polyreactivity
43 | QFQLVESGGGILQAGGSLRLSCAASGFIFSSYAMGWYRQAPGKERELVAAISKRGGSTYYADSVKGRFTISRDNAKNTVYLQMNSLKPEDTAVYYCARGSYPYRSFWLTSDYWGQVTQVTVSS | high polyreactivity
